Measurements taken from patent US20190183138.

Experiments:
bovine β-casein = target: T1, bovine β-casein (UniProt P02666)
T1 sequence: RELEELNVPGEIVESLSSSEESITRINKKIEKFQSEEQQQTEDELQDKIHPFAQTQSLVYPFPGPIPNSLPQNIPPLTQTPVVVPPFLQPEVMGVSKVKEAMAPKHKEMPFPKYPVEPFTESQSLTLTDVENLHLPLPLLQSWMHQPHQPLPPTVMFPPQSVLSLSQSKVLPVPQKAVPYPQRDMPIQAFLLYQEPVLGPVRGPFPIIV

bovine κ-casein = bovine κ-casein (UniProt P02668)
Sequence of bovine κ-casein (P02668 22-190): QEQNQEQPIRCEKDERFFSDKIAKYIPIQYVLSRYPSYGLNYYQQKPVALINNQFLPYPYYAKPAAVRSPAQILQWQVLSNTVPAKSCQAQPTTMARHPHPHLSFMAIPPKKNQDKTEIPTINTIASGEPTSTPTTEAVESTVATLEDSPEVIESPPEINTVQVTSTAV

Row | Substance | hydrolysis of isolated casein as a function of time (SDS-PAGE) (bovine α-casein) | hydrolysis of isolated casein as a function of time (SDS-PAGE) (bovine β-casein) | Km (bovine κ-casein) [mg/mL] | hydrolysis of isolated casein as a function of time (SDS-PAGE) (bovine κ-casein) | kcat (min) (bovine κ-casein) [s⁻¹] | kcat./Km [mL/(mg · min)] (mL/(mg · min)) (bovine κ-casein)
1 | Cynanchum otophyllum Schneid. protease QA (identified as asclepain of Asclepias Linn.) | α-casein was only partially hydrolyzed | β-Casein and κ-casein were completely hydrolyzed after 4 h of incubation | 0.397 ± 0.002 | hydrolysis by QA required almost 4 h | 1.66 | 251 ± 6.11
2 | Cynanchum otophyllum Schneid. protease QC (identified as cysteine protease B of Calotropis R. Br.) | α-casein was only partially hydrolyzed | The QC also exhibited a higher rate of hydrolysis than QA for β-casein and κ-casein | 1.708 ± 0.014 | Most of the κ-casein was hydrolyzed by QC after 30 min of incubation | 1.39 | 49 ± 1.93
